Assay results as given in article PMC9482650, “Quantitative fragmentomics allow affinity mapping of interactomes” (Nature Communications, 2022).
Residue numbers refer to the chain shown, from its start.

T1: SNTG1, Q9NSN8
T1 sequence (Q9NSN8 52-150, limits assumed, looked up): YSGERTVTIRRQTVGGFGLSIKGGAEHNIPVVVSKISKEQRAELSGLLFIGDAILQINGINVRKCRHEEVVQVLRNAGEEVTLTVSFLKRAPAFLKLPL

T2: PTPN13_1, Q12923
T2 sequence (Q12923 1088-1188, limits assumed, looked up): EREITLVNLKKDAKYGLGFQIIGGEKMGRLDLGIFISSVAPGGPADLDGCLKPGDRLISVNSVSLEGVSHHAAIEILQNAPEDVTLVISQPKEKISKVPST

T3: APBA2_2, Q99767
T3 sequence (Q99767 654-744, limits assumed, looked up): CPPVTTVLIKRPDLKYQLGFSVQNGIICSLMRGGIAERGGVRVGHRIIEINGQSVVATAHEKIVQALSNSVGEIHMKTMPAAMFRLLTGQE

T4: APBA1_2, Q02410
T4 sequence (Q02410 742-832, limits assumed, looked up): T3 sequence (Q99767 654-744, limits assumed, looked up) with K10R, K15R, A59P, Q65H, A66I, S70A, F84Y, G89A

T5: LIN7A, O14910
T5 sequence (O14910 103-200, limits assumed, looked up): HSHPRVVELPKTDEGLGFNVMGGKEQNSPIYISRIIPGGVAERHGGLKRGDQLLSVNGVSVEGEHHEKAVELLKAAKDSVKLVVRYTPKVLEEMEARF

T6: LNX2_2, Q8N448
T6 sequence (Q8N448 334-432, limits assumed, looked up): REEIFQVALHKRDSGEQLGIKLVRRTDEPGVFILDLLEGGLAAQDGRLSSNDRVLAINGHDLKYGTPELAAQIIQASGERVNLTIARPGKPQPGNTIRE

T7: SYNJ2BP, P57105
T7 sequence (P57105 8-110, limits assumed, looked up): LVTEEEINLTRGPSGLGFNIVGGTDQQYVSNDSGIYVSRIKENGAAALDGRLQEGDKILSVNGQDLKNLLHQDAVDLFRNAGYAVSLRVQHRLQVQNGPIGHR

T8: ARHGEF11, O15085
T8 sequence (O15085 42-136, limits assumed, looked up): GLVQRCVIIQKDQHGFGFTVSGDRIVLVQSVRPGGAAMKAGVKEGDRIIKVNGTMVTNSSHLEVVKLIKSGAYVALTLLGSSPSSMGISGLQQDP

T9: MPP7, Q5T2T1
T9 sequence (Q5T2T1 134-230, limits assumed, looked up): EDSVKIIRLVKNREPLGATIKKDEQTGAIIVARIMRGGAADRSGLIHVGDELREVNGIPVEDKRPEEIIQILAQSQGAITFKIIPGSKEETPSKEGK

T10: NHERF3_3, Q5T2W1
T10 sequence (Q5T2W1 238-333, limits assumed, looked up): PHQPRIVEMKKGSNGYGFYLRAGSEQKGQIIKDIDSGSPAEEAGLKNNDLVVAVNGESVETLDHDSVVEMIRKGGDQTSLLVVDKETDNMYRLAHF

T11: GRIP1_2, Q9Y3R0
T11 sequence (Q9Y3R0 145-248, limits assumed, looked up): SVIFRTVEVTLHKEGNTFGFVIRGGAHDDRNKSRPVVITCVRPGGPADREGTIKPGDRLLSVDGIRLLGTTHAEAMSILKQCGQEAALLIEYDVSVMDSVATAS

T12: SNTA1, Q13424
T12 sequence (Q13424 82-180, limits assumed, looked up): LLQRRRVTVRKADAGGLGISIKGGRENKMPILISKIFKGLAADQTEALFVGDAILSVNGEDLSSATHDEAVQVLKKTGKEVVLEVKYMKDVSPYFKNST


Experiments:
Experiment in all cases: holdup assay
Parameters in all cases: key: below the threshold = too weak to quantify, mostly under pKd 3.1 to 4
Details in all cases: plain residues with an end cap or a label only (N-terminal biotin on a linker: ado-ado)
SNTG1, Q9NSN8 = molecular target: T1, SNTG1, Q9NSN8
NOS1, P29475 = molecular target: NOS1, P29475
NOS1, P29475, sequence (P29475 9-101): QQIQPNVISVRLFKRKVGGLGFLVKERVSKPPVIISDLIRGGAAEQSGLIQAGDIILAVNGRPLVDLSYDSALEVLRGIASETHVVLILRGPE

PTPN13_1, Q12923 = molecular target: T2, PTPN13_1, Q12923
APBA2_2, Q99767 = molecular target: T3, APBA2_2, Q99767
PICK1, Q9NRD5 = molecular target: PICK1, Q9NRD5
PICK1, Q9NRD5, sequence (Q9NRD5 17-115): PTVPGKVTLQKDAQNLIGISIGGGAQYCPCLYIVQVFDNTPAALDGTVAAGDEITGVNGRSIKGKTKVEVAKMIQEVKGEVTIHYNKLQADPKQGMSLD

PARD3_3, Q8TEW0 = molecular target: PARD3_3, Q8TEW0
PARD3_3, Q8TEW0, sequence (Q8TEW0 582-685): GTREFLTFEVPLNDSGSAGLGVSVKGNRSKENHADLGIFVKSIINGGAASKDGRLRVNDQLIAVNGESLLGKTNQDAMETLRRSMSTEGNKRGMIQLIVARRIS

APBA1_2, Q02410 = molecular target: T4, APBA1_2, Q02410
MAGI1_1, Q96QZ7 = molecular target: MAGI1_1, Q96QZ7
MAGI1_1, Q96QZ7, sequence (Q96QZ7 1-106): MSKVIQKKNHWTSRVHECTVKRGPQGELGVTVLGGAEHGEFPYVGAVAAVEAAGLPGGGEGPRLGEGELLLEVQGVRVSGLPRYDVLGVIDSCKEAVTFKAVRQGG

IL16_4, Q14005 = molecular target: IL16_4, Q14005
IL16_4, Q14005, sequence (Q14005 1229-1329): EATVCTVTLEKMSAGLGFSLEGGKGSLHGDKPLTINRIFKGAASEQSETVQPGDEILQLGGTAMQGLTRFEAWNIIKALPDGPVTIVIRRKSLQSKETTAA

LIN7A, O14910 = molecular target: T5, LIN7A, O14910
LNX2_2, Q8N448 = molecular target: T6, LNX2_2, Q8N448
SYNJ2BP, P57105 = molecular target: T7, SYNJ2BP, P57105
ARHGEF11, O15085 = molecular target: T8, ARHGEF11, O15085
GIPC2, Q8TF65 = molecular target: GIPC2, Q8TF65
GIPC2, Q8TF65, sequence (Q8TF65 112-203): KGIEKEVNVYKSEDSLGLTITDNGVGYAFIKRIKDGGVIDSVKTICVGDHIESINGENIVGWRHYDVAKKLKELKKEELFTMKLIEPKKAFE

MPP7, Q5T2T1 = molecular target: T9, MPP7, Q5T2T1
DLG4_1, P78352 = molecular target: DLG4_1, P78352
DLG4_1, P78352, sequence (P78352 62-152): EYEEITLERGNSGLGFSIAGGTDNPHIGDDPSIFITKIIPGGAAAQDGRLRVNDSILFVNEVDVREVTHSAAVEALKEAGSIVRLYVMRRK

DLG4_2, P78352 = molecular target: DLG4_2, P78352
DLG4_2, P78352, sequence (P78352 155-259): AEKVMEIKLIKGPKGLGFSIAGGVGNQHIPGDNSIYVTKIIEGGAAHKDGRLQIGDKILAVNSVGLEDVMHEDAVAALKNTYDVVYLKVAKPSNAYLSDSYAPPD

NHERF3_3, Q5T2W1 = molecular target: T10, NHERF3_3, Q5T2W1
PDZRN4_1, Q6ZMN7 = molecular target: PDZRN4_1, Q6ZMN7
PDZRN4_1, Q6ZMN7, sequence (Q6ZMN7 213-318): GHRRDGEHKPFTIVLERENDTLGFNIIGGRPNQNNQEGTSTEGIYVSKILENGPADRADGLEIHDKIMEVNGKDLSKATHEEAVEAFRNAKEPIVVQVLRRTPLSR

GRIP2_4, Q9C0E4 = molecular target: GRIP2_4, Q9C0E4
GRIP2_4, Q9C0E4, sequence (Q9C0E4 446-548): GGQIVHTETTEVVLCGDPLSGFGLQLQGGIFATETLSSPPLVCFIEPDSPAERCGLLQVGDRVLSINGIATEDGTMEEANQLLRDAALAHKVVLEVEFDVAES

GRIP1_2, Q9Y3R0 = molecular target: T11, GRIP1_2, Q9Y3R0
Inadl_8, Q8NI35 = molecular target: Inadl_8, Q8NI35
Inadl_8, Q8NI35, sequence (Q8NI35 1425-1530): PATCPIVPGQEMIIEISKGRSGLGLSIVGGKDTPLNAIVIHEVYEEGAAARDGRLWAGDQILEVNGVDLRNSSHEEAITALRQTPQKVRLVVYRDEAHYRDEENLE

Inadl_2, Q8NI35 = molecular target: Inadl_2, Q8NI35
Inadl_2, Q8NI35, sequence (Q8NI35 238-335): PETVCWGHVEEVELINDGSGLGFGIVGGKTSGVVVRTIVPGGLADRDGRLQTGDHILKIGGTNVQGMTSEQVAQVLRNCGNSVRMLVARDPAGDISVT

SNTA1, Q13424 = molecular target: T12, SNTA1, Q13424
Inadl_4, Q8NI35 = molecular target: Inadl_4, Q8NI35
Inadl_4, Q8NI35, sequence (Q8NI35 547-651): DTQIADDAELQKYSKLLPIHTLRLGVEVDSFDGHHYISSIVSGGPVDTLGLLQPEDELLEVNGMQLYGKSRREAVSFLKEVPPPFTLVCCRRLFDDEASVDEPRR

SNX27, Q96L92 = molecular target: SNX27, Q96L92

| pKd (SNTG1, Q9NSN8) | pKd (NOS1, P29475) | pKd (PTPN13_1, Q12923) | pKd (APBA2_2, Q99767) | pKd (PICK1, Q9NRD5) | pKd (PARD3_3, Q8TEW0) | pKd (APBA1_2, Q02410) | pKd (MAGI1_1, Q96QZ7) | pKd (IL16_4, Q14005) | pKd (LIN7A, O14910) | pKd (LNX2_2, Q8N448) | pKd (SYNJ2BP, P57105) | pKd (ARHGEF11, O15085) | pKd (GIPC2, Q8TF65) | pKd (MPP7, Q5T2T1) | pKd (DLG4_1, P78352) | pKd (DLG4_2, P78352) | pKd (NHERF3_3, Q5T2W1) | pKd (PDZRN4_1, Q6ZMN7) | pKd (GRIP2_4, Q9C0E4) | also measured | Binder |
| --- | --- | --- | --- | --- | --- | --- | --- | --- | --- | --- | --- | --- | --- | --- | --- | --- | --- | --- | --- | --- | --- |
| 4.35 | 3.57 | below the threshold | below the threshold | below the threshold | below the threshold | 3.69 | below the threshold | below the threshold | below the threshold | below the threshold | 5.31 | 4.17 | below the threshold | below the threshold | 4.07 | 4.53 | below the threshold | 3.92 | below the threshold | pKd (GRIP1_2, Q9Y3R0): below the threshold; pKd (Inadl_8, Q8NI35): 4.71; pKd (Inadl_2, Q8NI35): below the threshold; pKd (SNTA1, Q13424): 3.91; pKd (Inadl_4, Q8NI35): below the threshold; pKd (SNX27, Q96L92): 4.68 | FVHPILQSAV [PRKCA, P17252] |
| below the threshold | below the threshold | 3.47 | below the threshold | 3.99 | below the threshold | below the threshold | below the threshold | below the threshold | below the threshold | below the threshold | below the threshold | below the threshold | below the threshold | below the threshold | below the threshold | 3.88 | below the threshold | below the threshold | below the threshold | pKd (GRIP1_2, Q9Y3R0): below the threshold; pKd (Inadl_8, Q8NI35): 3.88; pKd (Inadl_2, Q8NI35): below the threshold; pKd (SNTA1, Q13424): 3.55; pKd (Inadl_4, Q8NI35): below the threshold; pKd (SNX27, Q96L92): below the threshold | GKKSVKHSKI [ACOT6, Q3I5F7] |
